In patent US20020004209A1, “Use of SLIM3 for binding to molecules” (Schering Aktiengesellschaft Patents, priority 1999, published 2002):

How the values were obtained:
[1] = target: T1, estrogen receptors alpha (Homo sapiens, UniProt P03372); test: GST-protein-interaction test; format: binding; conditions: in vitro
T1 construct: made in house; host or cells: in vitro translation, 35S-methionine labelled
T1 sequence (P03372 1-595): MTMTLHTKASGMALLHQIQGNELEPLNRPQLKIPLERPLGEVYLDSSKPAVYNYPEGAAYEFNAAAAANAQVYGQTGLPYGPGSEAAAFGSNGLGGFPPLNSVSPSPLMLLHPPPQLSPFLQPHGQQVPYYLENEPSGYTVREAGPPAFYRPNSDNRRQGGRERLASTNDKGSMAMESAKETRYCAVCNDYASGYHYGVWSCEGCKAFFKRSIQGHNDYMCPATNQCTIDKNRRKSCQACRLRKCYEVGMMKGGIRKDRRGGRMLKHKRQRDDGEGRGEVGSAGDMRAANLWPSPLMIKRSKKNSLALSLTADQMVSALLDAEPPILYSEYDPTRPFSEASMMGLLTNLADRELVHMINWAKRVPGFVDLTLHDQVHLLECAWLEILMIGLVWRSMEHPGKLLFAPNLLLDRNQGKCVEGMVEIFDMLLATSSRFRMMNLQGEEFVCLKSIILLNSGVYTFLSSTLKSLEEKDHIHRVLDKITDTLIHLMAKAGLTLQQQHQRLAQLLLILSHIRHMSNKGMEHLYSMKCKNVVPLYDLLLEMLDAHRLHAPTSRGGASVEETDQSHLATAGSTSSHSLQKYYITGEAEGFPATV
Method: To measure the interaction between SLIM3 and the nuclear receptors in vitro, the GST-Slim3 fusion protein was immobilized by means of glutathione-sepharose and incubated with several in vitro-translated ^35S-methionine-labeled nuclear receptors. The complete human androgen receptor binds to GST-Slim3. This in vitro interaction is not ligand-dependent under standard conditions. The complete human androgen receptor binds specifically to GST-Slim3, but not to the GST protein alone. To safeguard the specificity between the human androgen receptor and SLIM3, another GST-protein-interaction test was carried out (GST-protein-interaction assay). This test is described in E. PFITZNER et al. (1995) Functional Antagonism Between the Retinoid Acid Receptor and the Viral Transactivator BZLF1 is Mediated by Protein-Protein Interactions. Proc Natl Acad Sci USA Vol. 92, pp. 12265-12269.

[2] = target: T2, androgen receptor (Homo sapiens, UniProt P10275); test: androgen receptor co-activation, MMTV-LUC or proteasin-Luc reporter, transient transfection; format: cell-based; conditions: 293 cells; with R1881; increasing amount of SLIM3-expression plasmid
T2 construct: expressed in transfected cells; host or cells: 293 cells
T2 sequence (P10275 1-920): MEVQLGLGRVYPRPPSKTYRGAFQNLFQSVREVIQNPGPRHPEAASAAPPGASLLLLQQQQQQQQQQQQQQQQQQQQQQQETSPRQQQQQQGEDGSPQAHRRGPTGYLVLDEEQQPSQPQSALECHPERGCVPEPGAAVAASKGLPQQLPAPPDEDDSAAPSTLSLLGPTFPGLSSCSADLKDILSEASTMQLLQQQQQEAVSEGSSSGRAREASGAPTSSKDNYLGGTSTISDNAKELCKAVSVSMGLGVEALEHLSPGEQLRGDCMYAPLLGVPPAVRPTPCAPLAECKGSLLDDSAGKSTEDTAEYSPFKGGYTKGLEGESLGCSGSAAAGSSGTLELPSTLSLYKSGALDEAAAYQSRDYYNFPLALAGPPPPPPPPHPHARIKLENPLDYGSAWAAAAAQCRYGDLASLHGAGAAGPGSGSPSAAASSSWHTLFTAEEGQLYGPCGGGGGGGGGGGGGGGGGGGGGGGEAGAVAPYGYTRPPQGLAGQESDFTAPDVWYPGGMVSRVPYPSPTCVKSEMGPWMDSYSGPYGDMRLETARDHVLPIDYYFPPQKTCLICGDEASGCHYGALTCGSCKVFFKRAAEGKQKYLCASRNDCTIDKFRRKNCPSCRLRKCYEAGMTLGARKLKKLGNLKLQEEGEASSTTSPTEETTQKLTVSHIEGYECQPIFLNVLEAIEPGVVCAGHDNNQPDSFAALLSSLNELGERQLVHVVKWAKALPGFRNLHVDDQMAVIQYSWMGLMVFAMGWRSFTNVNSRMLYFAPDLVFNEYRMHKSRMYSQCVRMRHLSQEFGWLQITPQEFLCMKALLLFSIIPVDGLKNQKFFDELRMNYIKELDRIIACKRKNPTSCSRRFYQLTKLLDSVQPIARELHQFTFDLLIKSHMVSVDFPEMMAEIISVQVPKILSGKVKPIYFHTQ
T2 sequence (Q14192 1-279 partner): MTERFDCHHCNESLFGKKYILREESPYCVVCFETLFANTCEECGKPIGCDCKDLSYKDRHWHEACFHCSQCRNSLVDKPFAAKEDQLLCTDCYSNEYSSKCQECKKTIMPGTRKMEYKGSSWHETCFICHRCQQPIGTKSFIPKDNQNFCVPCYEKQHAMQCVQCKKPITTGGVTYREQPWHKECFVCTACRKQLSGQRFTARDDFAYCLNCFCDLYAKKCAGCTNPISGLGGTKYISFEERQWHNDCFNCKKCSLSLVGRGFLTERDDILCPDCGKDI

bond to SLIM3 [1]: no bond
additional super-induction of the reporter gene [2]: three-fold to five-fold
Substance: SLIM3: LIM-domain protein of 279 amino acids, co-activator for nuclear receptors AR and ERβ
